In patent publication US20190033295A1 (published 2019):

Target: HSP70 protein (UniProt P0DMV8 1-641)
Test: SPR

HSP70 protein, sequence (P0DMV8 whole entry): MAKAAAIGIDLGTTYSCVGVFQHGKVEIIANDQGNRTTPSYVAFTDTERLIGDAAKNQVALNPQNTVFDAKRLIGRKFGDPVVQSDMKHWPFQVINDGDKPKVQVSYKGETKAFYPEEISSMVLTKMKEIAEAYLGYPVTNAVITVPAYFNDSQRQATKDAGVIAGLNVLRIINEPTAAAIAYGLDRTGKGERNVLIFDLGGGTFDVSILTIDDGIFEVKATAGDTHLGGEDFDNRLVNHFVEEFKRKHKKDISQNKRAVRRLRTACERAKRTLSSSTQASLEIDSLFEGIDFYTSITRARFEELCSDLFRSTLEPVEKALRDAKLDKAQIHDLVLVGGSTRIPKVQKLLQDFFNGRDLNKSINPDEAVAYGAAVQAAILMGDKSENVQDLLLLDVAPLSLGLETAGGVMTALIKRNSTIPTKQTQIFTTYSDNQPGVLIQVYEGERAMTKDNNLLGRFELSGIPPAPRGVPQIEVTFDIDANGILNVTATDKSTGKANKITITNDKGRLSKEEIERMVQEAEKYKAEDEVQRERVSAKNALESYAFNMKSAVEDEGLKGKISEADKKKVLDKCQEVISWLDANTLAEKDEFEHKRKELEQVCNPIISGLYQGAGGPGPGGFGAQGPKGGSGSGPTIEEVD

B1: AIMP2-DX2 protein (other)
chain: MPMYQVKPYHGGGAPLRVELPTCMYRLPNVHGRSYGPAPGAGHVQDYGALKDIVINANPASPPLSLLVLHRLLCEHFRVLSTVHTHSSVKSVPENLLKCFGEQNKKQPRQDYQLGFTLIWKNVPKTQMKFSIQTMCPIEGEGNIARFLFSLFGQKHNAVNATLIDSWVDIAIFQLKEGSSKEKAAVFRSMNSALGKSPWLAGNELTVADVVLWSVLQQIGGCSVTVPANVQRWMRSCENLAPFNTALKLLK
With B1 the Kd was 0.479 nM.
